Broadly, the EC50 is the concentration at which the effect is half-maximal.

From patent US20190194350A1 (UNIVERSITAT STUTTGART, published 2019) come the findings set out here.

Where “and” joins values, the source holds several entries; their conditions need not be identical. Equal entries are not always repeated.

For assay [1], the target named is T1, HER3 on HER3-expressing tumor cells (human, UniProt P21860 20-1342).
T1 construct: Endogenous HER3 of human tumor cell lines (MCF-7, FaDu, BT474, A431, NCI-N87, A549, SKBR-3, Colo205, HCT-116, A375 and melanoma lines); also called cellular receptor HER3; cell surface expressed HER3
Kind of assay: flow cytometry, HER3-expressing MCF-7 cells. On the technique in general: Flow cytometry measures light scatter and fluorescence of single cells or particles in a stream.

Assay [2] addresses T2, HER3-Fc fusion comprising the extracellular domain (aa 27-599) of human HER3 (human, UniProt P21860 27-599).
T2 construct: also called HER3-Fc fusion protein; not shown: Fc part
Kind of assay: ELISA, coated HER3-Fc (aa 27-599), anti-His-HRP.

In assay [3] the target is T1, HER3 on HER3-expressing tumor cells. Kind of assay: cell-based or functional assay.
Assay [4] has as its target T3, CD3 on CD3-expressing Jurkat cells (human, UniProt P07766 23-207).
T3 construct: whole, on cells; also called human CD3
Kind of assay: flow cytometry, CD3-expressing Jurkat cells.

The target in assay [5] is T3, CD3 on CD3-expressing Jurkat cells. Kind of assay: flow cytometry, CD3-positive Jurkat cells.
Assay [6] concerns the target T4, mouse HER3-Fc fusion protein (extracellular region of mouse HER3 fused to a human Fc region) (mouse, UniProt Q61526 20-641).
T4 construct: extracellular domain; not shown: human Fc region
Kind of assay: ELISA, immobilized mouse HER3 extracellular region fused to human Fc, scFv detected with anti-His-tag antibody. (In general: ELISA stands for enzyme-linked immunosorbent assay.)

Assay [7] deals with T5, EGFR on tumor cells (human, UniProt P00533 25-1210).
T5 construct: whole, on cells; also called EGFR on FaDu and SKBR-3 cells
Kind of assay: flow cytometry, SKBR-3 cells (carry EGFR and HER3; bispecific, number not split between the two targets); SKBR-3 cells (EGFR and HER3 in similar ranges).

Assay [8] addresses T1, HER3 on HER3-expressing tumor cells. Described as above.
Assay [9] has as its target T5, EGFR on tumor cells. Kind of assay: flow cytometry, FaDu cells (very high EGFR, low HER3; the filing says binding is most likely through the hu225 moieties); FaDu cells.
In assay [10] the target is T6, HER3-His (HER3 aa 27-599 of the extracellular domain fused C-terminally with a hexahistidyl-tag) (human, UniProt P21860 27-599).
T6 construct: also called soluble His-tagged HER3; His-tagged extracellular domain of HER3; not shown: C-terminal hexahistidyl-tag
Kind of assay: sandwich ELISA: coated EGFR-Fc, serial dilution of Db3-43xhu225-Ig, then 300 nM HER3-His detected by anti-His-HRP.

Assay [11] addresses T1, HER3 on HER3-expressing tumor cells. Kind of assay: flow cytometry, HER3-positive MCF-7 cells; MCF-7 cells.
Assay [12] addresses T6, HER3-His (HER3 aa 27-599 of the …). Kind of assay: ELISA, coated His-tagged HER3 ECD (aa 27-599).
The target of the next assay is T7, HER2-ECD protein (UniProt P04626 23-652, limits assumed).
T7 construct: extracellular domain
Kind of assay: ELISA, immobilized HER2-ECD.

T3 sequence (P07766 23-207): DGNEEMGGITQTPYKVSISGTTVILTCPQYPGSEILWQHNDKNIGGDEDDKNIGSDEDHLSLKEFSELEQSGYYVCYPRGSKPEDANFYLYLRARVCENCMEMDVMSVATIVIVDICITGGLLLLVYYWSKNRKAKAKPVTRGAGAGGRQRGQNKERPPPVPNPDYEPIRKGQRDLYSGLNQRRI
T4 sequence (Q61526 20-641): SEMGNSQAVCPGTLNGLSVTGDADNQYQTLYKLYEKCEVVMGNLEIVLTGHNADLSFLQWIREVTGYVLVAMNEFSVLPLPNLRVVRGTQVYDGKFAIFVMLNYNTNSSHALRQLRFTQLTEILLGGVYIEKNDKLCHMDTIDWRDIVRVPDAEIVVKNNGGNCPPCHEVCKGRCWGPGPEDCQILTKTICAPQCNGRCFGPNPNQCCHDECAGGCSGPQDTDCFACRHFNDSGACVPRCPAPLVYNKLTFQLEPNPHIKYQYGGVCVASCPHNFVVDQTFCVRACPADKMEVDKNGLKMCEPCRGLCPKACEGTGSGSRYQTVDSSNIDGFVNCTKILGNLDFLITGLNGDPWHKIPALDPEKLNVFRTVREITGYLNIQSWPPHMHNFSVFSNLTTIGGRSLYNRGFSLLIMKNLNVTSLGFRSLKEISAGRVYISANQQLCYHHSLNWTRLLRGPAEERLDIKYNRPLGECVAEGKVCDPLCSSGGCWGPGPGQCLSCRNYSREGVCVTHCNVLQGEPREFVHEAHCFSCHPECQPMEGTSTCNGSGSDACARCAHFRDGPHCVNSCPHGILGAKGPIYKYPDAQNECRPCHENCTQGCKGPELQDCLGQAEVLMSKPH

B1: scDb3-43xCD3-scFv3-43 (bispecific antibody)
chain: QLQQSGPGLVKPSQTLSLTCAISGDSVSSNRAAWNWIRQSPSRGLEWLGRTYYRSKWYNDYAQSLKSRITINPDTPKNQFSLQLNSVTPEDTAVYYCARDGQLGLDALDIWGQGTMVTVSSGGGGSDIQMTQSPSSLSASVGDRVTITCRASQDIRNYLNWYQQKPGKAPKLLIYYTSRLHSGVPSRFSGSGSGTDFTFTISSLQPEDIATYYCQQGNTLPWTFGQGTKLEIKRGGGGSGGGGSGGGGSQVQLVQSGAEVKKPGSSVKVSCKASGGTFSGYTMNWVRQAPGQGLEWMGLINPYKGVSTYNGKFKDRVTITADKSTSTAYMELSSLRSEDTAVYYCARSGYYGDSDWYFDVWGQGTLVTVSSGGGGSQAGLTQPPAVSVAPGQTASITCGRDNIGSRSVHWYQQKPGQAPVLVVYDDSDRPAGIPERFSGSNYENTATLTISRVEAGDEADYYCQVWGITSDHVVFGGGTKLTVLAAAGGSGGGGSGGGTQVQLQQSGPGLVKPSQTLSLTCAISGDSVSSNRAAWNWIRQSPSRGLEWLGRTYYRSKWYNDYAQSLKSRITINPDTPKNQFSLQLNSVTPEDTAVYYCARDGQLGLDALDIWGQGTMVTVSSGGGGSGGGGSGGGGSQAGLTQPPAVSVAPGQTASITCGRDNIGSRSVHWYQQKPGQAPVLVVYDDSDRPAGIPERFSGSNYENTATLTISRVEAGDEADYYCQVWGITSDHVVFGGGTKLTVLGSLHHHHHH
notes: Trivalent: two sites for HER3, one for CD3; also called scDb-scFv; scDb3-43xhuU3-scFv3-43
For the molecule B1, the concentration for a half-maximal effect (EC50) in assay [1] is 0.0316 nM and 0.0314 nM; in [2] it was 0.81 nM; in [4], 13.2 nM; in assay [5], 4.2 nM. Moreover, in assay [3], the “IL-2 release of PBMC with HER3-expressing MCF-7 cells (EC50)” value was found to be 0.29 nM. In addition, the “killing of MCF-7 cells by PBMC, MTT assay (EC50)” value in [3] was 0.034 nM.

B2: scFv 3-43 (scFv)
scFv: QVQLQQSGPGLVKPSQTLSLTCAISGDSVSSNRAAWNWIRQSPSRGLEWLGRTYYRSKWYNDYAQSLKSRITINPDTPKNQFSLQLNSVTPEDTAVYYCARDGQLGLDALDIWGQGTMVTVSSGGGGSGGGGSGGGGSQAGLTQPPAVSVAPGQTASITCGRDNIGSRSVHWYQQKPGQAPVLVVYDDSDRPAGIPERFSGSNYENTATLTISRVEAGDEADYYCQVWGITSDHVVFGGGTKLTVLG
Regarding B2, in assay [6], the binding result was “binds”.

B3: scDb 3-43xCD3 (bispecific antibody)
chain: QLQQSGPGLVKPSQTLSLTCAISGDSVSSNRAAWNWIRQSPSRGLEWLGRTYYRSKWYNDYAQSLKSRITINPDTPKNQFSLQLNSVTPEDTAVYYCARDGQLGLDALDIWGQGTMVTVSSGGGGSDIQMTQSPSSLSASVGDRVTITCRASQDIRNYLNWYQQKPGKAPKLLIYYTSRLHSGVPSRFSGSGSGTDFTFTISSLQPEDIATYYCQQGNTLPWTFGQGTKLEIKRGGGGSGGGGSGGGGSQVQLVQSGAEVKKPGSSVKVSCKASGGTFSGYTMNWVRQAPGQGLEWMGLINPYKGVSTYNGKFKDRVTITADKSTSTAYMELSSLRSEDTAVYYCARSGYYGDSDWYFDVWGQGTLVTVSSGGGGSQAGLTQPPAVSVAPGQTASITCGRDNIGSRSVHWYQQKPGQAPVLVVYDDSDRPAGIPERFSGSNYENTATLTISRVEAGDEADYYCQVWGITSDHVVFGGGTKLTVLAAAHHHHHH
notes: also called scDb3-43xhuU3
On to B3, for which the EC50 in assay [1] is 1.1 nM; in assay [2], 3.3 nM and 4.87 nM; in assay [4], 3.1 nM; in assay [5], 2.4 nM. In assay [3], the “IL-2 release of PBMC with HER3-expressing Colo205 cells (EC50)” value came out at 0.3 nM. The “IL-2 release of PBMC with HER3-expressing MCF-7 cells (EC50)” value in [3] stood at 0.48 nM. In addition, in [3], the “killing of MCF-7 cells by PBMC, MTT assay (EC50)” value worked out at 0.084 nM.

B4: Db3-43xhu225-Ig (bispecific antibody, human IgG1, kappa)
light: QVQLQQSGPGLVKPSQTLSLTCAISGDSVSSNRAAWNWIRQSPSRGLEWLGRTYYRSKWYNDYAQSLKSRITINPDTPKNQFSLQLNSVTPEDTAVYYCARDGQLGLDALDIWGQGTMVTVSSGGGGSDIQLTQSPSFLSASVGDRVTITCRASQSIGTNIHWYQQKPGKAPKLLIKYASESISGVPSRFSGSGSGTEFTLTISSLQPEDFATYYCQQNNNWPTTFGAGTKLEIKRTVAAPSVFIFPPSDEQLKSGTASVVCLLNNFYPREAKVQWKVDNALQSGNSQESVTEQDSKDSTYSLSSTLTLSKADYEKHKVYACEVTHQGLSSPVTKSFNRGEC
heavy: EVQLVESGGGLVQPGGSLRLSCAASGFSLTNYGVHWVRQAPGKGLEWLGVIWSGGNTDYNTPFTSRFTISRDNSKNTLYLQMNSLRAEDTAVYYCARALTYYDYEFAYWGQGTTVTVSSGGGGSQAGLTQPPAVSVAPGQTASITCGRDNIGSRSVHWYQQKPGQAPVLVVYDDSDRPAGIPERFSGSNYENTATLTISRVEAGDEADYYCQVWGITSDHVVFGGGTKLTVLASTKGPSVFPLAPSSKSTSGGTAALGCLVKDYFPEPVTVSWNSGALTSGVHTFPAVLQSSGLYSLSSVVTVPSSSLGTQTYICNVNHKPSNTKVDKKVEPKSCDKTHTCPPCPAPPVAGPSVFLFPPKPKDTLMISRTPEVTCVVVDVSHEDPEVKFNWYVDGVEVHNAKTKPREEQYNSTYRVVSVLTVLHQDWLNGKEYKCKVSNKGLPSSIEKTISKAKGQPREPQVYTLPPSRDELTKNQVSLTCLVKGFYPSDIAVEWESNGQPENNYKTTPPVLDSDGSFFLYSKLTVDKSRWQQGNVFSCSVMHEALHNHYTQKSLSLSPGK
notes: Light chain VH3-43xVLhu225-CL, heavy chain VHhu225xVLhu3-43-CH1-CH2-CH3; two sites for EGFR and two for HER3; also called Db-Ig; bispecific and tetravalent diabody-Ig fusion protein
Take B4: the EC50 with EGFR on tumor cells [7] is 0.047 nM; in assay [8] it was 0.047 nM; with EGFR on tumor cells [9], 0.14 nM; in [10], 0.85 nM; in [11] it was 0.054 nM; in assay [12], 0.26 nM.

B5: IgG 2-35 (antibody, V domains shown)
VH: QMQLVQSGAEVKKPGESLKISCKGSGYSFTSYWIGWVRQMPGKGLEWMGIIYPGDSDTRYSPSFQGQVTISADKSISTAYLQWSSLKASDTAMYYCARLGRSGSYYNYGMDVWGQGTTVTVSS
VL: QAVVTQEPSFSVSPGGTVTLTCGLSSGSVSSSYYPSWYQQTSGQPPRTLIYSTDTRSSGVPDRFSGSILGDKAALTITGAQADDESDYYCMLYMGSGISVFGGGTKLAVL
notes: Anti-HER2 antibody found by phage display
For the molecule B5, in the assay with HER2-ECD protein, the EC50 is around 1.5 nM.
